Source: PMC1240114

Molecular target: tFKBP*3R (UniProt P62942 2-108, F37V;M50R;E55R;T86R)
Assay: filter binding

Sequence of tFKBP*3R (P62942 2-108 F37V/M50R/E55R/T86R): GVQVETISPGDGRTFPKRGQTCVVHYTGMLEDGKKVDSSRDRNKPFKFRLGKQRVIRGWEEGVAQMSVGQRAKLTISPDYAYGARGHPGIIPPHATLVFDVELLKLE

B1: s23 U74C (structured_RNA)
RNA: GGGCAUUGGAUCGCAUUGUCAUUUCAUUGUGGCGGUGCAGUCAAAUGUGAUGCUUCGUUCAGUGACGGGAGGGCUGUGAGUGGUCUGAACGUAAGC
Kd: 10.8 ± 3.8 nM
